Literature values in PMC5012591.
pKd: −log10 of the molar value.

Target: flagellar motor switch protein FliM (Escherichia coli) (UniProt P06974)
Chain of UniProt P06974 (P06974 whole entry): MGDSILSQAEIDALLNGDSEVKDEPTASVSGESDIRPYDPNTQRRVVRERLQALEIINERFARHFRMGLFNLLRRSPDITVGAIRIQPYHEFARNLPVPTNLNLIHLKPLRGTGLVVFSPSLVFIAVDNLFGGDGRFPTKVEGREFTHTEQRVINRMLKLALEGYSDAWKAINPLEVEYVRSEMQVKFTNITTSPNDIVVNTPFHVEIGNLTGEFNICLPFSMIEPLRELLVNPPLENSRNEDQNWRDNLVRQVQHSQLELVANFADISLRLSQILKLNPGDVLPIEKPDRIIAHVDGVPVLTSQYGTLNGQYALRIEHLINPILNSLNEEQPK

CheY-P (from UniProt P0AE67)
pKd: 5.51
